Reference: the domain aggregation screens of Martell et al. (2025)

Test: soluble fraction after stress (log2 fold change); higher = more stays soluble; pooled small domains, quantitative proteomics
Settings: stress: 50 degC
How it was run: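 Quantitative proteomics served as the high-throughput read-out for pooled custom libraries of small protein domains. Each was stressed at 50°C. Aggregation propensity is expressed as the base-two log fold change in soluble protein after stress. A higher value means a larger share of the protein remains in solution.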

| Sequence | soluble fraction (log2) |
| --- | --- |
| HMIIIMKKSATNSEVRKVIERAEKEGLTVQVNQLEKQQVLGLVGDTRLIQDVAFLRYEGVENVERI | -0.776 |
| HMIILYTDEQQRIIDRLNEFIGEQPSQNEAAKLLGISAPILTNLRKGTYTGTVDKFMNKLAAYFNIKADLG | -1.05 |
| HMIIMVNLYQIWDKEVQGLDSVGAKPEQIEARRQAIAAHFESKARQAGMSSKDIYATLDNFDTYSRQKTS | -2.28 |
| HMIINFDAIRLTTELNKYNRHKAIPNSFFDGTFTILDVRDLYDSLSPKVQKIADTLIEQYNVDVKQ | -1.85 |
| HMIISMKKGATPQEISHVRKLIEELGYKVHESQGSERMVFGAIGDERSKHRLTSLEAQPGVEKVIPILA | 0.191 |
| HMIISMKKTATKEQIAHVRELIEGMGYKAHMSVGAERVIFGAIGDERGKERLVSLEAQPGVEKVIPIL | 0.255 |
| HMIITLNIENLKRARENAGLTQTQAAQKIGVSDGTYKNYEQGKREPNGDKIVTIANAFGVTTDYLLGR | -0.334 |
| HMIIVMRKGATEAQVNDIVERVRAAGFGVHLSQGEERTIIGAIGGDRAVLADLNLEAAPGVERVTPIS | 0.0417 |
| HMIIYGLNPVKDFINLFPNKISTLFISKNKLSDSEMKSVVNINTVYVSDAELKRITGTTKHQSLAAEID | -1.21 |
| HMIKILGSAYRHGLDDDDILRAWNYHIQEFFEGEDPEKIVRLGFDTHGRLLEIGGEIYPGGGEKIFHAM | -0.729 |
| HMIKITLPDGSVKEYKKGITPAEVAQSISEGLARNVISASYNGKTIETVTPLTTDGSLVLYTWDSPEGK | 0.193 |
| HMIKLTVRQQEILDLIARSIDQTGFPPTRAEIAAELGFKSVNAAEEHLQALARKGVIEMVPGISRGIRLVQ | -0.395 |
| HMIKRNPLDEIEGVGPGRKKALLHAFGSAKGVSRASVVDLVKVEGVSQALAERIHDFFHPATR | -0.113 |
| HMIKSIRELAEVITLWKNQGKTILIAEHRLSYLMDLADRVLYMKDGQIENDFSMADFRKIPPDEISRMGLR | -0.126 |
| HMIKVAANESNRSDVLEIVRLFRVRVVDVNPESLTIEATGAEGKIDALLGLLEHYGVIELVRSGAVAVT | -0.435 |
| HMILESREKYLGEVLEVLVEEEKEGEYFGYSQNYLRVKFKLEEKNLINQLINIKIKSIEDDILIGEKEN | -1.46 |
| HMILKNVTSDLANKRLDKVASILFQTYSRTQIKKWILEGRVLVNGEISNPKDHVHENDEIEINPI | -1.04 |
| HMIMISKSFEINEDNINKRLDIFLTENLDGLSRGIVQKYISLEQITVNKESSHKDYRLKLDDFIEVKIQAH | -3.76 |
| HMIMNDIQAKVLEIAETKDLGSITYYRLSKMLGVDHPYRVKYAIDKLIEKGLLTAKSDGSITKAI | -0.601 |
| HMIMTTKVSGIMFDKFNPSAILNINGMDYLVRSGDIINGYKILSIGQETVTVQYGANVYKASVG | -2.26 |
| HMIMVAGHLQIKKGKYYMVLELKSESGERKTKWISTGLSAKGNKRKAEAMLEEARENYQSTDA | -0.899 |
| HMINIFKVKKAMEEIFASEWEDSPYTDQKISQILWSRGFSVSTGLVEKYRGQMGVPDANSRLNLN | -2.38 |
| HMINIGANIRAIRKQKNIKQVDLVRLLQLEGVEITRETLVKIESGVQHIKASQLRGIRDALGTTYDELL | -2.95 |
| HMINITALVKQLGGVDISKFNSAFKLLQQGKPLNTISNKVMADTFVALMKNSDEALNTKFRAAFKKI | -0.272 |
| HMINKIANLSAELRMEGLPVSIRSTQAAVKIYMDLGGDDRNLLKTALMSIYVKDRYDIPKFNKVFEKLFA | -1.12 |

| Sequence | soluble fraction (log2) |
| --- | --- |
| HMINKQPKDYEYFLEKWHFTQTEKHQLHNLILKLNIRYPNKDFLKITENLDNGKLVLKKLEERLSKT | -1.05 |
| HMINNINKLPETQFIKLFANIFENSQFIAVALYKKKGDGFSDFKDLINKIMDIFENTTKEKKLKILNA | -0.0982 |
| HMINPASEKQLSFANSLIAKKEGGTETLNHYLHNRKVSSLEELDRKDVSEIINALKFAKEVT | 0.217 |
| HMINRPVYVPLYTNLDVKDAAEIAEKLEENNIAYKLEDQGETILVNPEQKYKVRLMLAQEGLPKG | -0.0681 |
| HMINSFDYLQAIFTELMKSQSKMTNQDAAKRLFMQGKVAVSNRDREGLRMVLAQLVTLLPKEELGGLSTVS | 0.0921 |
| HMIPESVQGIEEFLATGALKGIGKKTAAAIVHKFGKDTLRIMEEEPERLAEVSGIGEKKAAAIGEAFALH | 0.171 |
| HMIPNPMTDRELEVLGLLASGKTYKQVARALDLSQSTVRNHLHNVYHKLNVVDRAQAVIVSRENGW | -0.289 |
| HMIPPGTITIEGAITKVPVFLDGKQIGTVPLTKEDVEPGKYRIRVLGVGRVITIDPGEKENVLFSGEDLGL | -0.142 |
| HMIPTDPNGDLIKILYTSDQINELYARAKLNDVEDLFLDWTKNVLGESNFEETGPTKNEYLIPQ | -0.149 |
| HMIPTTELAERLGTTKVANMIMLGALIKASGIISFDDMIKNLGELLGEGKAKLIKLNKEALEVGFN | -0.0172 |
| HMIPYSDLLKLLSNDAMPKFRNKDGWAKIHALETYLASRWSYQEYGFASFTVLLETVHNAEIRNDSVRLM | -0.343 |
| HMIQTMVVTDLKNGTIFKENGHPFIVLKYEHIKVSRGSAQVRVKMKNLITGQVLEKSWQSTAHVDDT | -2.1 |
| HMIRMPNLIGLSVRSAEQQLVIAGLKKGIVHQVNDPRLKEVIDMQALGHKITAGSSIPKGTEVDLYIGNGT | 0.146 |
| HMISAVDLMAARRKIEAGITNLQPGQAFTLPNKVGWVKRMTGGSYFIQGNGGYTASVRTISEAIQAAAMLL | -0.394 |
| HMISDQENDLNLKHLFDTADQNKDGLILESELKMLMTNLEINKETYDTVMKQITPAGMDYKTFSSL | 0.0963 |
| HMISFLNFVRKEIDASQLKDSTKQNHLTTIGLLQSFKPSIEFKDLNYNFITSFEKYLYDAGYQM | 0.133 |
| HMISKQQRQALILDIIQKQSITSQEALLTELQRHHVMTTQTTVSRDIRALGIVRIKDVNGELSYQQLQ | -2.5 |
| HMISKRFQIDEDNSNKRIDIFLTQSLDSISRGIVQQLILENKVEVNGGPVKRNYLIKIGDVIDVKIDL | -0.939 |
| HMISKTFEINEDNINNRLDIFLANQFDNLSRGIVQKLIESHSVSVSGNFVEKDYKLKLGDIIDVEINLS | -0.486 |
| HMISLNEDQKLAILNEWNQRPDDPPFIKELIELVFPDIPEEAKTGRSRYGIAIKKFLAEKSLQAKV | -0.305 |
| HMISLPSYIREEATEVYNRLHDLGLEYTSLDVNDDSIPKGYVVRTVPEAGASVPAGQVVTVYVSLG | -0.446 |
| HMISQLRGKVLGTDRDALVIDVGGVGFRVSATAGARALAGQSGNEARLFTEMVVREDSIDLFGF | 0.217 |
| HMISRKIKELRLSHDLTQKDLADYLNLTPKMVSFYELGQRVPPSDIILKLAEKFHVSTDYLLGNEDRP | -0.0279 |
| HMITDNEFLRIVSFLKQRYGIDMSQKKVIMNGRLENYLKSGGWSSFDEYMNDVEKDTSGDLEKTLVNFLTT | -0.537 |
| HMITETIGANIKTLRDKFRMSQQDLASKMNTARPVISNWENGKTEPSSSQLLKLAKIFDTSTDKILGNV | 0.163 |

| Sequence | soluble fraction (log2) |
| --- | --- |
| HMITKEDVANKKVNLLFFGNFHKMKLPDFEWGITEMMQDRDYLYGSLTKDLYFLGLVLDRKYKI | 0.0334 |
| HMITKENYLEKIKEIKVNEFPASMRELYDFFNEATRNGTDWSAYEEGNVKYVVDAYLERLNLLYKSN | -0.175 |
| HMITLYIHNLEEVGKRLDHYLVSNLDDHSRSQIQSWIRSGSILVNDRSVKTGYSLELNDQILINPPK | -2.63 |
| HMITNSTEIEAMIDSLIKENPEQAEQYRNGNTKVVGWFVGQMMKASKGKANPQVVGDLLAQKLVG | 0.0323 |
| HMIVAHEINRHLGESDQPVEIPDNRREGAVAELLKTFNNDDAFREMDDGKYEVALDGEKVREAARSLLA | 0.027 |
| HMIVDARNREINLGSHVRYVDTGTVGEVTDSKVENDASWVKIDKTNLWYLANKLELLNDEDFKT | 0.0653 |
| HMIVDINDVRIDKYIADNTDYSRNLILNLIKNGDILVNDSKIKPSYKVKQGDKITINNVKTD | 0.227 |
| HMIVKQPDIRKQELLDIGVRLYFEAGEKGVSIQQVVKQAGVATGLFYYYFSSKDAFLDEALNDYID | 0.102 |
| HMIVLPGEELEVHIVQEGKEDGQGVAYLDDGTMVVVEGGRPYVDSFAYVAVTRVLQTGAGRIIFAHPTR | -0.832 |
| HMIYNSGTTDSRGEAIVGGYLVTVTDTDTKDPVANAAVTLHKDNSISIRLPNSRLLDYADQTTVTVQLV | -0.0327 |
| HMKAEKEIEKIKFTIYNEFKRKQEENHFLPPWDGTKMLRQFVLGVVANNPKYQHVNTDILYRDLLLLYYQ | -0.968 |
| HMKAFTKKELQDLVLNIFRASPTTNYNYKQLYKLIRGKDPEIKTLIIAVLLGLEKNGSILQMRPGKYKFS | 0.593 |
| HMKALDTVLSEIPGLGPVRIKQLLKVFGSVDAIRKASLQDLQQIEGIGPKLAQTIYEYFHQP | ≥ 0.62 |
| HMKALYNLDYEKPLSGSYYTETTARAAVPTDIRKLGLIITYKTDATTNITEQFVGSSISAWTTSGNWKSLG | -0.424 |
| HMKAPPLTDREKEILRWVAAGLQNKEIAHKLGISLATVRNHIHNILEKLDVHSKLEAVSLAFRQGWVS | -0.0741 |
| HMKASEMKKGQTIKIDGVLYVIVDFQHVKLSKGGAVYQTKLRNLAAGGIRDIRIRAEEVLEDA | -0.311 |
| HMKDITPASEDQLKAITDLMLKVNGEWSDAFFTFISKKFNHQISSPEQLTTFEANTIIDMLRKKAEG | 0.192 |
| HMKDLDSLSQEAKSVYAVFSDKPIHIDDIKRKTGLDFSKLFKAVTELELAELISSGEGKMYSL | -0.0108 |
| HMKDLTIRQQQFLNYIKDHLSLTGFPPTRSDIANEMGFKSPNAAEDHLRALARKGAIEIVPGTSRGIRLP | -0.24 |
| HMKDMKISTKNLLQELAKNYPDQTSFRKNVIETTARAMGYTGKDFYPLLTTDNRVKIGTYDLATFLRSI | -0.718 |
| HMKDNPNETFERIAGKITRTLRSGPVRIQQLDLLFSESAGKVVDVLRAMAENGEVLIKDDTIQLNGNN | 0.0379 |
| HMKDTFHNLSEEKRERIIRAALGEFAASGYEKATLDGVVQAAGISKGGLYEYISSKEDLFRYLLEYSYD | -1.53 |
| HMKDTNENLMKMLALLIHAAKIDENYSDEEKELIVNFAEMSSKENLNREQILSIIKSAEEYE | -0.702 |
| HMKEADVRKNEILDAAGILFSEKGYDNTSVTDIMNAVGFAKGTLYHHFKSKEDIMDALIKRQTD | 0.219 |
| HMKEAISIYPNPVKDILTIRGMDETSGVSFKLYDVTGNLLLESTHSELDMSGLNRGVYFLDIAGDVRKVVK | 0.0696 |
